To fix the notation:
B1: human Rap1 isoform Rap1b (residues 1–167) (natural protein)
chain: MREYKLVVLGSGGVGKSALTVQFVQGIFVEKYDPTIEDSYRKQVEVDAQQCMLEILDTAGTEQFTAMRDLYMKNGQGFALVYSITAQSTFNDLQDLREQILRVKDTDDVPMILVGNKCDLEDERVVGKEQGQNLARQWNNCAFLESSAKSKINVNEIFYDLVRQINR

Experiment [1] deals with murine talin1 head domain, residues 1–400 (THD) (murine, UniProt P26039 1-400). The experiment can be described thus: NMR titration.
Experiment [2] deals with B1. The experiment can be described thus: NMR titration.

Sequence of murine talin1 head domain, residues 1–400 (THD) (P26039 1-400): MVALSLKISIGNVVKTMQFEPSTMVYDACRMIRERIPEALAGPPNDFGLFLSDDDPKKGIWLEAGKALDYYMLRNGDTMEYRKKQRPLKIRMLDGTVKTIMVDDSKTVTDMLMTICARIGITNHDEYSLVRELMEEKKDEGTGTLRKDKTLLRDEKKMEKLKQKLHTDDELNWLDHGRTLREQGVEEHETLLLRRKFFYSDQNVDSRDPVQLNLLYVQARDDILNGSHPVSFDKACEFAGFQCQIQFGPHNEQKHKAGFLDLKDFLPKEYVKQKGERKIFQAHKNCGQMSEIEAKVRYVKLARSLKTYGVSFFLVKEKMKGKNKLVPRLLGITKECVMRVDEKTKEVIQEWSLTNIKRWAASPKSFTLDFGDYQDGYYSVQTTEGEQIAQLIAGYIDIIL

Consider B1, for which, in experiment [1], the binding result is reported as “binds”.

B2: talin1 F1(ΔL), residues 84–196 Δ141–170 (F1 Δloop) (domain or fragment)
chain: KQRPLKIRMLDGTVKTIMVDDSKTVTDMLMTICARIGITNHDEYSLVRELMEEKKDELNWLDHGRTLREQGVEEHETLLLRRK
On to B2, for which the binding result in experiment [2] is listed as “binds”.

For the origin of these results see paper PMC6548133 (The Journal of Cell Biology, 2019).
